In patent publication US20090325262A1, “Immobilization of biological molecules onto surfaces coated with monolayers” (SURFACE LOGIX, INC., priority 2001, published 2009):
Values belong to the substance of their own block, whether it stands above or below them.

Legend:
[1] = molecular target: biotin-NH-Arg-Asp-Cys-CONH2; assay: SPR (Biacore 3000), streptavidin flowed over 2% maleimide SAM treated with the peptide (1.2 mM, 12 min); FIG. 3 sensorgram A
[2] = molecular target: biotin-NH-Arg-Asp-Cys-CONH2; assay: SPR, fibrinogen (0.5 mg/mL) flowed over 2% maleimide SAM treated with the peptide; FIG. 4
[3] = test system: CCCC(=O)Oc1ccc([N+](=O)[O-])cc1; assay: purified protein, by the assay type; conditions: other: substrate of recombinant cutinase; release of PNP followed by absorbance
Procedure: The cutinase concentration was 1 M. The release of PNP was followed using absorbance spectroscopy.
Spectrophotometric measurement was performed at room temperature using BECKMAN DU-640 spectrophotometer (BECKMAN COULTER, INC., Fullerton, Calif.). Esterase activity of purified recombinant cutinase was measured by monitoring p-nitrophenol butyrate (PNB) hydrolysis rates at 410 nm (=8,800 M-1 cm-1) in buffer A.

SPR response (RU) [1]: 2280 RU
Substance: streptavidin (from UniProt P22629 37-163)

SPR response (RU) [2]: 60 RU
Substance: fibrinogen

Substance: cutinase (Fusarium vanettenii)
Km [3]: 1000 µM
